{"source": "paper PMC10449523", "about": "“A polysaccharide utilization locus from Chitinophaga pinensis simultaneously targets chitin and β-glucans found in fungal cell walls” (mSphere, 2023)", "assay_in_all_cases": "fluorescent release of 4-methylumbelliferone (chitinase assay kit CS1030)", "assay_type_in_all_cases": "biochemical, Chitinophaga pinensis", "details_in_all_cases": "kit manufacturer's conditions", "key": {"[1]": {"substrate": "CC(=O)N[C@H]1[C@H](Oc2ccc3c(C)cc(=O)oc3c2)O[C@H](CO)[C@@H](O[C@@H]2O[C@H](CO)[C@@H](O[C@@H]3O[C@H](CO)[C@@H](O)[C@H](O)[C@H]3NC(C)=O)[C@H](O)[C@H]2NC(C)=O)[C@@H]1O", "text": "fluorescent release of 4-methylumbelliferone (chitinase assay kit CS1030) on […]"}, "[2]": {"substrate": "CC(=O)N[C@H]1[C@H](Oc2ccc3c(C)cc(=O)oc3c2)O[C@H](CO)[C@@H](O[C@@H]2O[C@H](CO)[C@@H](O[C@@H]3O[C@H](CO)[C@@H](O)[C@H](O)[C@H]3NC(C)=O)[C@H](O)[C@H]2NC(C)=O)[C@@H]1O", "text": "fluorescent release of 4-methylumbelliferone (chitinase assay kit CS1030) on CpChiB-CBM6", "remark": "listed apart in the source"}, "[3]": {"substrate": "CC(=O)N[C@H]1[C@H](Oc2ccc3c(C)cc(=O)oc3c2)O[C@H](CO)[C@@H](O[C@@H]2O[C@H](CO)[C@@H](O[C@@H]3O[C@H](CO)[C@@H](O)[C@H](O)[C@H]3NC(C)=O)[C@H](O)[C@H]2NC(C)=O)[C@@H]1O", "text": "fluorescent release of 4-methylumbelliferone (chitinase assay kit CS1030) on CpChiB", "remark": "listed apart in the source"}, "[4]": {"substrate": "CC(=O)N[C@H]1[C@H](Oc2ccc3c(C)cc(=O)oc3c2)O[C@H](CO)[C@@H](O[C@@H]2O[C@H](CO)[C@@H](O[C@@H]3O[C@H](CO)[C@@H](O)[C@H](O)[C@H]3NC(C)=O)[C@H](O)[C@H]2NC(C)=O)[C@@H]1O", "text": "fluorescent release of 4-methylumbelliferone (chitinase assay kit CS1030) on CpChiAC-CBM5", "remark": "listed apart in the source"}}, "data": [{"protein": "CpChiAC (Chitinophaga pinensis DSM 2588) (protein, C-terminal His6 tag (pET21a), E. coli BL21(DE3)) KVVVGYWQNWNLASAPYIRLRDVDSRYNVIEVAFGTTSSDLSTVNFTPEGTTVADFKADIATLQAQGRKVLLSLGGETGTLVINTEANKQAFISSMKNLLDSYNFDGFDLDIEGGTSLQLNNGDNNFMAPTTPKVVNLIAAAKEIISYRKAQGKNCLLTMAPETYYVQTAYGATYSPLVGAYLPIIYGLRNELSWIQPQLYNTGSVMGLDNKVYNSTTADFIVSMTEMLLQGFPVSGTSQTFPALREDQVAFGLPAAPGAAGSGYTAPAEVKKALNYLTKGQSYGGTYVIRKAAGYPGLRGIMTWSVNWDKVNNSEFAANYYPYFFGT", "values": [{"measurement": "Km", "setting": "[1]", "result": "220 ± 3", "unit": "µM"}, {"measurement": "kcat", "setting": "[1]", "result": "2.6587 ± 0.035", "unit": "s⁻¹"}, {"measurement": "kcat/Km", "setting": "[1]", "result": 11800, "unit": "M⁻¹ s⁻¹"}]}, {"protein": "CpChiB-CBM6 (Chitinophaga pinensis DSM 2588) (protein, C-terminal His6 tag (pET21a), E. coli BL21(DE3)) QFKVVGYMPSWSGSVSAIQYSKLTHINYAFALPTSTGGLQPIENPSKLSSLVSSGHANGVKVLIAIGGWNNGDDGAFESLAANATYRTNFVNNVMNFVNQYGLDGVDMDWEYPDAGASANNYLALMQQLSTALHNNGKLLTAAVVGTGGASILNGVFNVVDFLNLMAYDYNNYEHSTYTYASQSLSYWVGRGLPASKAILGVPFYARPSWNSYATLLANGANPNSDYFGSDYYNGLPTIRSKTNLAFDQGGGIMMWELSQDATGANSLLSAIYQVKLDRTGTNPPTGSTLIQAENYTSMSGVQVEATTDAGGGSNVGYIETGDWLAYANINFPTSGAYKVEYRVASQSTGGQLSLDLNSGAIVLGYLNVPVTGGWQTWTTISHNVNVTAGTYSLGVYAQSGGWNINWIRITKVAS", "values": [{"measurement": "Km", "setting": "[2]", "result": "120 ± 3", "unit": "µM"}, {"measurement": "kcat", "setting": "[2]", "result": "1.005 ± 0.0533", "unit": "s⁻¹"}, {"measurement": "kcat/Km", "setting": "[2]", "result": 8150, "unit": "M⁻¹ s⁻¹"}]}, {"protein": "CpChiB (Chitinophaga pinensis DSM 2588) (protein, C-terminal His6 tag (pET21a), E. coli BL21(DE3)) QFKVVGYMPSWSGSVSAIQYSKLTHINYAFALPTSTGGLQPIENPSKLSSLVSSGHANGVKVLIAIGGWNNGDDGAFESLAANATYRTNFVNNVMNFVNQYGLDGVDMDWEYPDAGASANNYLALMQQLSTALHNNGKLLTAAVVGTGGASILNGVFNVVDFLNLMAYDYNNYEHSTYTYASQSLSYWVGRGLPASKAILGVPFYARPSWNSYATLLANGANPNSDYFGSDYYNGLPTIRSKTNLAFDQGGGIMMWELSQDATGANSLLSAIYQVKLDR", "values": [{"measurement": "Km", "setting": "[3]", "result": "240 ± 10", "unit": "µM"}, {"measurement": "kcat", "setting": "[3]", "result": "2.199 ± 0.148", "unit": "s⁻¹"}, {"measurement": "kcat/Km", "setting": "[3]", "result": 8850, "unit": "M⁻¹ s⁻¹"}]}, {"protein": "CpChiAC-CBM5 (Chitinophaga pinensis DSM 2588) (protein, C-terminal His6 tag (pET21a), E. coli BL21(DE3)) KVVVGYWQNWNLASAPYIRLRDVDSRYNVIEVAFGTTSSDLSTVNFTPEGTTVADFKADIATLQAQGRKVLLSLGGETGTLVINTEANKQAFISSMKNLLDSYNFDGFDLDIEGGTSLQLNNGDNNFMAPTTPKVVNLIAAAKEIISYRKAQGKNCLLTMAPETYYVQTAYGATYSPLVGAYLPIIYGLRNELSWIQPQLYNTGSVMGLDNKVYNSTTADFIVSMTEMLLQGFPVSGTSQTFPALREDQVAFGLPAAPGAAGSGYTAPAEVKKALNYLTKGQSYGGTYVIRKAAGYPGLRGIMTWSVNWDKVNNSEFAANYYPYFFGTTPGNQSPVVSITSPASGASFTAPASITITASASDADGSIAKVEFYNGATKLGQATAAPYSYTWTNVAAATYSLTAVATDNAGAVTTSAAVSVTVNGTGGNTCDGIAAWSATIAYNGSQQVVYNGKIYTAKWWTQGDQPDTHSGADQVWAYVRDCGGSNPGNQAPTVSITSPSAGASFSAPATVTIQATAADADGTIAKVEFYNGNTKLGEVTASPYSYTWGNVAAGAYSITAVATDNGSKSTTSAAVAIQVGSGNTGNCAGVAAYEPFPKVYNQGDKVVYNGVLYESQSNGLYNVTPGTADWWWKPLGACGAAARVAVVSPEPDGVNADSKLVVFPNPLTGTVLKVQINAAQGEKVLIELWSTNGNAILRKQIVAGAKGQQTVDLDVSQVPAGSWILKTSNQQSGRKSAAKVIRL", "values": [{"measurement": "Km", "setting": "[4]", "result": "290 ± 0.2", "unit": "µM"}, {"measurement": "kcat", "setting": "[4]", "result": "3.0285 ± 0.0383", "unit": "s⁻¹"}, {"measurement": "kcat/Km", "setting": "[4]", "result": 10600, "unit": "M⁻¹ s⁻¹"}]}]}
